Experiment [1] deals with T1, biotinylated full-length HER2 (human, UniProt P04626 23-652, limits assumed, biotinylated (site not stated)).
T1 construct: Immobilised on the SPR chip; also called bio-HER2; Human Epidermal Growth Factor Receptor 2
Briefly: SPR multi-trace, biotinylated HER2 on chip, analyte 0.617-50 nM, global 1:1 Langmuir fit. The source says: (§1) FIGS. 9A-9F: Multi-trace SPR profiles of DTPA-coupled DARPins (also referred to as constructs, see Tables 7 and 16) against biotinylated full-length HER2. FIGS. 9A, 9B, 9C, 9D, 9E, and 9F show the profiles of construct 6 (DARPin06-GSGSC-DTPA), construct 8 (DARPin08-GSGSC-DTPA), construct 13 (DARPin13-GSGSC-DTPA), construct 14 (DARPin14-GSGSC-DTPA), construct 15 (DARPin15-GSGSC-DTPA) and construct 16 (DARPin16-GSGSC-DTPA), respectively. The GSGSC tag (SEQ ID NO: 14) was fused to the C-terminal end of the DARPins. Three-fold dilutions of the analytes (50, 16.667, 5.556, 1.852 and 0.617 nM) were injected for 300s, dissociation was recorded for 1500s (25 ul/min). Each injection was followed by a regeneration step with glycine pH 2.0 for 60s. Dissociation constants (KD) were calculated from the globally fitted on- and off-rates using standard 1:1-Langmuir model (see Table 17).
(§2) Binding kinetics of the constructs to the target protein HER2 was measured in a multi-trace SPR assay. A new Xantec NAHLC200M chip was conditioned according to the manufacturer's protocol. The chip was coated with biotinylated target (bio-HER2, 10 ug/mL) for 900s to reach a signal intensity of approximately 1200-1300 RU. Three-fold dilutions of the analytes (50, 16.667, 5.556, 1.852 and 0.617 nM) were injected for 300s, dissociation was recorded for 1500s (25 ul/min). Each injection was followed by a regeneration step with glycine pH 2.0 for 60s. The signals (i.e. resonance unit (RU) values) of empty surface and a reference injection (i.e. injection of running buffer only) were subtracted from the RU traces obtained injecting the constructs (double-referencing). Dissociation constants (KD) were calculated from the globally fitted on- and off-rates using standard 1:1-Langmuir model.

For experiment [2], the target named is T1, biotinylated full-length HER2. The description is as above.
From the text: as §1, §2
This is another data set of the same source.

Experiment [3] has the same target. Description: SPR, single trace, 500 nM analyte over biotinylated HER2 on the chip, double-referenced, 1:1 Langmuir fit [continued]. The source says: (§3) FIG. 4: Single-trace SPR profiles of DTPA-coupled DARPins (also referred to as constructs, see Table 7) against biotinylated full-length HER2. As reference, plots 1 and 2 show the profiles of the HER2-binding parental DARPin06 (SEQ ID NO: 6) and DARPin11 (SEQ ID NO: 11), respectively. Plots 3, 4, 5, 6 and 7 show the profiles of construct 6 (DARPin06-GSGSC-DTPA), construct 7 (DARPin07-GSGSC-DTPA), construct 8 (DARPin08-GSGSC-DTPA), construct 9 (DARPin09-GSGSC-DTPA) and construct 10 (DARPin10-GSGSC-DTPA), respectively. Plots 8 and 9 show construct 11 (DARPin11-GSGSC-DTPA) and construct 12 (DARPin12-GSGSC-DTPA), respectively. The GSGSC tag (SEQ ID NO: 14) was fused to the C-terminal end of the DARPins. All analytes (500 nM) were injected in succession for 120s, dissociation was recorded for 180s (25 ul/min of PBS-Tween20 (0.005%)). Each injection was followed by a regeneration step with glycine pH2.0 for 60s. The data was double referenced (control spot and buffer injection) and fitted to a 1:1 Langmuir model.
A surface plasmon resonance (SPR) assay was used to determine if the charge-engineered DARPin variants derived from the parental DARPin06 (SEQ ID NO: 6) and DARPin11 (SEQ ID NO: 11) could still bind to HER2. All SPR data were generated using a Bruker Sierra SPR-32 instrument with PBS-T (0.005% Tween 20) as running buffer. A new Bruker BTC Chip was conditioned according to the manufacturer's protocol. The chip was coated with biotinylated target (bio-HER2) to reach a signal intensity of approximatively 600 RU. All analytes (500 nM) were injected in succession for 120s, dissociation was recorded for 180s (25 ul/min). Each injection was followed by a regeneration step with glycine pH 2.0 for 60s. The data was double referenced (control spot and buffer injection) and fitted to a 1:1 Langmuir model. […] A DTPA coupled DARPin is also referred to as a “construct”. SPR curves are shown in FIG. 4 where plots 1 and 2 show the profiles of the HER2-binding parental DARPin06 and DARPin11 (SEQ ID NOs: 6 and 11, respectively).
On the technique in general: Surface plasmon resonance follows binding to a sensor surface in real time, without labels.

For experiment [4] the target is unchanged. Briefly: SPR, single trace, 500 nM analyte over biotinylated HER2 on the chip, double-referenced, 1:1 Langmuir fit.
From the text: as §3
A surface plasmon resonance (SPR) assay was used to determine if the charge-engineered DARPin variants derived from the parental DARPin06 (SEQ ID NO: 6) and DARPin11 (SEQ ID NO: 11) could still bind to HER2. […] All analytes (500 nM) were injected in succession for 120s, dissociation was recorded for 180s (25 ul/min). […]

A value given as a limit tells only on which side of the number the result lay.

A word on the Kd: it is the constant that tells how readily two partners part at equilibrium. As usually defined, the koff is the first-order rate constant of dissociation. Higher therefore signals fast dissociation. The term kon denotes a measure of how fast the partners come together. High values mean faster complex formation, low ones slower complex formation.

B1: DARPin08-GSGSC-DTPA (designed binder)
chain: DLGTQLLRAAESGQLDEVRELLKAGADVNAQDEYGLTPLYLATAHGHLEIVTVLLEAGADVNAQDAIGFTPLHLAAFIGHLEIATVLLEAGADVNAQDKFGKTPADIAAGAGNEDIAEVLQKAAGSGSC
modifications: maleimide-DTPA coupled to the C-terminal Cys of the GSGSC tag
notes: Charge variant of DARPin06; His-TEV tag cleaved off; possible N-terminal GS not included; also called construct 8
B1: the Kd in experiment [1] is less than 1 nM. For the same molecule, in experiment [2], binding was put at a Kd of 0.17 nM, the dissociation rate constant (koff) amounted to 8.82e-05 s⁻¹ and the on-rate (kon) came to 521000 M⁻¹ s⁻¹. Also, binding in experiment [3] was put at a Kd of 0.583 nM.

B2: DARPin10-GSGSC-DTPA (designed binder)
chain: DLGTQLLQAAESGQLDTVRELLKAGADVNAQDEYGLTPLYLATAHGHLQIVRVLLQAGADVNAQDAIGFTPLHLAAFIGHLEIATVLLKAGADVNAQDKFGKTPADIAATAGNQQIASVLQKAAGSGSC
modifications: maleimide-DTPA coupled to the C-terminal Cys of the GSGSC tag
notes: Charge variant of DARPin06; His-TEV tag cleaved off; possible N-terminal GS not included; also called construct 10
Consider B2, for which, in experiment [3], the affinity, expressed as Kd, was 0.622 nM.

B3: DARPin14-GSGSC-DTPA (designed binder)
chain: DLGTQLLEAAESGQLDEVRELLQAGADVNAQDEYGLTPLYLATAHGHLEIVTVLLEAGADVNAQDAIGFTPLHLAAFIGHLEIATVLLEAGADVNAQDKFGKTPADIAAGAGNEDIAEVLQKAAGSGSC
modifications: maleimide-DTPA coupled to the C-terminal Cys of the GSGSC tag
notes: Charge variant derived from DARPin06; His-TEV tag cleaved off; possible N-terminal GS not included; also called construct 14
Molecule B3 registered an equilibrium dissociation constant (Kd) in experiment [1] of less than 1 nM. For the same molecule, in experiment [2], binding was put at a Kd of 0.23 nM, the koff was 0.000121 s⁻¹ and the on-rate constant (kon) is 524000 M⁻¹ s⁻¹.

B4: DARPin16-GSGSC-DTPA (designed binder)
chain: DLGTQLLEAAESGQLDEVRELLKAGADVNAQDEYGLTPLYLATAHGHLEIVTVLLEAGADVNAQDAIGFTPLHLAAFIGHLEIATVLLEAGADVNAQDKFGTTPADIAAGAGNEDIAEVLQKAAGSGSC
modifications: maleimide-DTPA coupled to the C-terminal Cys of the GSGSC tag
notes: Charge variant derived from DARPin06; His-TEV tag cleaved off; possible N-terminal GS not included; also called construct 16
Take B4: in experiment [1], the Kd is less than 1 nM. Also, in experiment [2], binding was put at a Kd of 0.615 nM, the off-rate (koff) is 0.00026 s⁻¹ and the kon was found to be 422000 M⁻¹ s⁻¹.

B5: DARPin06-GSGSC-DTPA (designed binder)
chain: DLGKKLLEAARAGQDDEVRELLKAGADVNAKDEYGLTPLYLATAHGHLEIVEVLLKAGADVNAVDAIGFTPLHLAAFIGHLEIAEVLLKAGADVNAQDKFGKTPADIAAGAGNEDIAEVLQKAAGSGSC
modifications: maleimide-DTPA coupled to the C-terminal Cys of the GSGSC tag
notes: Parent; also called construct 6; DTPA coupled parental DARPin06
Turning to B5, in experiment [2], the Kd came to 0.216 nM, the off-rate (koff) came to 0.000141 s⁻¹ and the association rate constant (kon) turned out to be 653000 M⁻¹ s⁻¹. In addition, in experiment [4], the Kd was determined as 0.284 nM.

B6: DARPin15-GSGSC-DTPA (designed binder)
chain: DLGTQLLRAAESGQLDEVRELLKAGADVNAQDEYGLTPLYLATAHGHLEIVTVLLEAGADVNAQDAIGFTPLHLAAFIGHLEIATVLLEAGADVNAQDNFGTTPADIAAGAGNEDIAEVLQQAAGSGSC
modifications: maleimide-DTPA coupled to the C-terminal Cys of the GSGSC tag
notes: Charge variant derived from DARPin06; His-TEV tag cleaved off; possible N-terminal GS not included; also called construct 15
B6: in experiment [1], the dissociation constant Kd was less than 1 nM. In experiment [2], this molecule displayed a Kd of 0.637 nM, a koff of 0.000214 s⁻¹ and a kon of 336000 M⁻¹ s⁻¹.

B7: DARPin13-GSGSC-DTPA (designed binder)
chain: DLGTQLLQAAESGQLDEVHDLLQAGADVNAQDEYGLTPLYLATAHGHLEIVTVLLEAGADVNAQDAIGFTPLHLAAFIGHLEIATVLLEAGADVNAQDKFGKTPADIAAGAGNEDIAEVLQKAAGSGSC
modifications: maleimide-DTPA coupled to the C-terminal Cys of the GSGSC tag
notes: Charge variant derived from DARPin06; His-TEV tag cleaved off; possible N-terminal GS not included; also called construct 13
With B7, the Kd in experiment [1] was less than 1 nM. In experiment [2], this molecule came in with a dissociation constant Kd of 0.357 nM, a koff of 0.000138 s⁻¹ and an on-rate (kon) of 386000 M⁻¹ s⁻¹.

B8: parental DARPin06 (designed binder)
chain: DLGKKLLEAARAGQDDEVRELLKAGADVNAKDEYGLTPLYLATAHGHLEIVEVLLKAGADVNAVDAIGFTPLHLAAFIGHLEIAEVLLKAGADVNAQDKFGKTPADIAAGAGNEDIAEVLQKAA
In turn, B8 had a Kd in experiment [4] of 0.0575 nM.

B9: DARPin11-GSGSC-DTPA (designed binder)
chain: DLGIKLLFAAAKGQDDEVRELLKAGADVNAKDFQGVTPLHIAAQSGHLEIVEVLLKAGADVNAKDVTGDTPLHLAAQHGHLEIVEVLLKAGADVNAQDERGWTPADLAADWGHEDIAEVLQKAAGSGSC
modifications: maleimide-DTPA coupled to the C-terminal Cys of the GSGSC tag
notes: Parent; His-TEV tag cleaved off; possible N-terminal GS not included; also called construct 11; DTPA coupled parental DARPin11
With B9, the dissociation constant Kd in experiment [3] worked out at 0.226 nM.

B10: DARPin12-GSGSC-DTPA (designed binder)
chain: DLGIQLLFAAAKGQLDTVRTLLQAGADVNAKDFQGVTPLHIAAQSGHLQIVEVLLQAGADVNAKDVTGDTPLHLAAQHGHLQIVTVLLQAGADVNAQDERGWTPADLAADWGNQQIAEVLQQAAGSGSC
modifications: maleimide-DTPA coupled to the C-terminal Cys of the GSGSC tag
notes: Charge variant of DARPin11; His-TEV tag cleaved off; possible N-terminal GS not included; also called construct 12
In experiment [3], B10 yielded an equilibrium dissociation constant (Kd) of 0.982 nM. Compared with the last molecule, the Kd is about 4.3-fold higher.

B11: DARPin07-GSGSC-DTPA (designed binder)
chain: DLGTQLLRAAESGQLDTVRTLLKAGADVNAKDEYGLTPLYLATAHGHLQIVRVLLQAGADVNAKDAIGFTPLHLAAFIGHLKIAEVLLKAGADVNAQDKFGKTPAQIAATAGNQQIASVLQKAAGSGSC
modifications: maleimide-DTPA coupled to the C-terminal Cys of the GSGSC tag
notes: Charge variant of DARPin06 (negative control for kidney uptake, higher pI); His-TEV tag cleaved off; possible N-terminal GS not included; also called construct 7
In experiment [3], B11 displayed a Kd of 0.457 nM.

B12: DARPin09-GSGSC-DTPA (designed binder)
chain: DLGTQLLQAAESGQLDTVRTLLKAGADVNAQDEYGLTPLYLATAHGHLQIVQVLLSAGADVNAQDAIGFTPLHLAAFIGHLQIAQVLLSAGADVNAQDKFGTTPAQIAATAGNQQIASVLQQAAGSGSC
modifications: maleimide-DTPA coupled to the C-terminal Cys of the GSGSC tag
notes: Charge variant of DARPin06; His-TEV tag cleaved off; possible N-terminal GS not included; also called construct 9
On to B12, for which, in experiment [3], the affinity, expressed as Kd, was 1.44 nM.

The values above are taken from US20240132546A1 (Molecular Partners, published 2024).
